The values that follow come from patent US20050272636A1, “Treatment and diagnosis of a reproductive disorder by measuring or inhibiting interferon-gamma” (Adelaide Research & Innovation Pty Ltd., priority 2002, published 2005).

Where only a bound is given, the exact number is not on record here.

The target in data set [1] is T1, IFNγ (Mus musculus, UniProt P01580).
T1 construct: purchased R&D Systems, UK
T1 sequence (P01580 23-155): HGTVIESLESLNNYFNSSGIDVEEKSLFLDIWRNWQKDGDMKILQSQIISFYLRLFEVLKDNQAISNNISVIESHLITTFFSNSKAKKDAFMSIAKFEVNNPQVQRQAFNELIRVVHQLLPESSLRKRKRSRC
Nature of the data set: Penicillin inhibition of the IFNγ effect on GM-CSF production in uterine epithelial cells (Example 2). The data set is classed as cell-based. The conditions noted are these: DMEM +penicillin versus DMEM -penicillin. Here is the method:
Uterine Epithelial Cell Cultures. Uterine epithelial cells prepared as previously described (Robertson et al., Biol Reprod 46:1069-1079 (1992)) were pooled from 4-6 estrous C57B1/6 or C57B1/6×Balb/c F1 mice and plated in 1 ml culture wells (Nunc, Roskilde, Germany) at 1-2×10^5 cells per ml in 500 μl of Dulbecco's modified Eagles medium containing 10% FCS, […] streptomycin sulphate and […] benzyl penicillin (DMEM +penicillin). After 4 h incubation at 37° C. in 5% CO2 to allow cell adherence, a further 500 μl of DMEM +penicillin, or DMEM +penicillin plus recombinant mouse IFNγ (rIFNγ) and/or recombinant human TGFβ1 (rTGFβ), were added. In some experiments, penicillin-free DMEM (DMEM −penicillin) was used throughout. Culture supernatants were collected and replaced with fresh medium at 16 hours, then collected again 24 hours later, at which time GM-CSF content was determined and adherent cells were quantified as previously described (Robertson et al., Biol Reprod 46:1069-1079 (1992)). […]
GM-CSF bioassay: GM-CSF was assayed using the GM-CSF dependant cell line FD 5/12, essentially as previously described (Robertson et al., Biol Reprod 46:1069-1079 (1992)). Cell proliferation was determined by pulsing with 1 μCi of [^3H]-thymidine per well for the last 6 h of the assay. […] GM-CSF production is expressed as ng GM-CSF/10^5 cells/24 h. […]

The subject of data set [2] is IFNγ. Nature of the data set: Inhibitors and antagonists counteracting the GM-CSF-inhibiting actions of IFNγ in uterine epithelial cells (Example 3). The class given is cell-based, mouse. The conditions noted are these: for effect of TGFβ isoform on the inhibitory effect of IFNγ on GM-CSF synthesis: added in combination with IFNγ, dose-responsive, 5 ng/ml greater effect than 0.5 ng/ml. The method, then: Several inhibitors and antagonists of IFNγ were tested for their ability to counteract the GM-CSF-inhibiting actions of IFNγ in epithelial cells.
Uterine Epithelial Cell Cultures. Uterine epithelial cells prepared by pancreatin-trypsin digest as previously described (Robertson et al., (1992) Biol. Reprod. 46:1069-1079) were pooled from 4-6 estrous adult C57B1/6×CBA F1 female mice and plated in 1 ml culture wells (Nunc, Roskilde, Germany) at 1-2×10^5 cells per ml in 500 μl of RPMI containing 10% FCS and streptomycin (RPMI-FCS). Penicillin was omitted from culture media except where specified. After 4 h incubation at 37° C. in 5% CO2 to allow cell adherence, a further 500 μl of cytokines or antibodies in RPMI-FCS, or RPMI-FCS alone, were added. Cytokine treatments included recombinant mouse interferon-γ (rmIFNγ; R&D Systems), recombinant human transforming growth factor β1 (rhTGFβ1, R&D Systems), rhTGFβ2 (R&D Systems), rhTGFβ3 (OSI Pharmaceuticals). Antibody treatments included goat anti-mouse IFNγ receptor 1 (αIFNγR; R&D Systems AF1026) and hamster anti-mouse IFNγ (αIFNγ; R&D Systems MAB4851). Culture supernatants were collected and replaced with fresh complete RPMI-FCS alone at 16 hours, then collected again 24 hours later, at which time adherent cells were quantified as previously described (Robertson et al., (1992) Biol. Reprod. 46:1069-1079). The GM-CSF content of 24 h supernatants was determined by GM-CSF bioassay or immunoassay. All treatments were performed in duplicate or triplicate.
GM-CSF bioassay and immunoassay: Bioactive GM-CSF was assayed using the GM-CSF dependant cell line FD 5/12, essentially as previously described (Robertson et al., (1992) Biol. Reprod. 46:1069-1079). Cell proliferation was determined by the addition of 1 μCi of [^3H]-thymidine per well for the last 6 h of the assay. The minimal detectable amount of GM-CSF was […] The identity of the bioactivity in uterine epithelial cell cultures was confirmed using a goat polyclonal antibody to murine GM-CSF kindly provided by J. Schreurs (DNAX, Palo Alto, Calif.) as previously described (Robertson et al., (1992) Biol. Reprod. 46:1069-1079). GM-CSF immunoactivity was in some experiments measured by commercial mouse GM-CSF specific ELISA (R & D Systems) according to the manufacturer's instructions.

The subject of data set [3] is human cervical epithelial cells. Nature of the data set: Effect of IFN-γ and TGFβ on GM-CSF synthesis in human cervical epithelial cells (Example 4). The conditions noted are these: 5.0 ng/ml recombinant human IFN-γ; 12 h; ELISA. The data set is classed as cell-based. The method, then:
Human cervical epithelial cells were cultured using a modification of the technique described by Rheinwald et al., Cell 1975 3: 33143 (1975). Cervical biopsies were obtained from consenting women undergoing hysterectomy for non-malignant gynaecological indications. All the women were pre-menopausal, but no distinction was made regarding the stage of their menstrual cycle at the time of surgery. The cervical biopsies were placed in ice-cold Hank's balanced salt solution for transport to the laboratory, washed twice in antibiotic-containing medium, and incubated overnight at 4° C. in Dulbecco's modified Eagle's medium (DMEM) containing 5 U dispase (Boehringer Mannheim). Large sheets of keratinocytes were mechanically stripped from the biopsy using sterile forceps after a subsequent 1 h incubation at room temperature. Disaggregation into single cells was facilitated by incubation in DMEM/0.25% trypsin/0.05% collagenase for 30 minutes at 37° C., and repeated aspiration using a needle and syringe. […]
Supernatant was collected 12 hours later and assayed for GM-CSF activity using a commercial human GM-CSF specific ELISA (R & D Systems) according to the manufacturer's instructions. The GM-CSF content of post-treatment supernatants were normalised to the GM-CSF content of corresponding 12 h (baseline) supernatants and expressed as a percentage of control values.
In general terms: An ELISA detects its analyte on a solid surface through an enzyme-linked reagent.

In another data set the test system is mice. Briefly: Effect of IFN-γ treatment on pregnancy outcome in mice (Example 8). The data set is classed as in vivo. The conditions noted are these: for effect on the detrimental effects of IFN-γ on pregnancy outcome: implantation rate, viable versus resorbing fetuses, fetal and placental weight on day 18. The method, then: Mice are housed under specific pathogen-free conditions at the University of Adelaide Medical School Animal House on a 12:12 light-dark cycle, and administered food and water ad libitum. Adult Balb/c×C57B1/6 F1 females (7-10 weeks old) are synchronised into estrus by caging in close proximity to males. Estrus is identified on the basis of presence of cornified epithelial cells in vaginal smears prepared at 0900-1000 h daily and examined by phase contrast microscopy. On the day of estrus (day 0) females are caged with proven fertile Balb/k males for natural mating. The day of sighting a vaginal plug is nominated day 1 of pregnancy.
Mice are randomly allocated to one of four groups and treated as follows: Group 1 (100 ng IFN-γ) mice receive three intraperitoneal injections of […] recombinant mouse IFN-γ (rmIFN-γ, R&D Systems) in 200 μl PBS containing 1% bovine serum albumin (PBS-BSA) at 1700 h on day 0, at 1000 h on day 1 and 1700hon day 1.
Group 2 (250 ng IFN-γ) receive three injections of 250 ng rmIFN-γ according to the same time schedule.
Group 3 (control) receive three injections of PBS-BSA instead of IFN-γ according to the same time schedule.
Group 4 (comparison) Mice are mated but otherwise remain untreated.
Twenty mice per group are used to ensure statistical significance in treatment effects.
Alternatively, a transcervical delivery route for IFN-γ is used. Treatments are delivered directly into the uterine lumen with the aid of a tom-cat catheter (Sovereign, St Louis Mo.). In mated animals this requires removal of vaginal plugs using forceps to allow transcervical access. Mice are randomly allocated to one of four groups and treated as follows: the first group (100 ng IFN-γ) mice receive three transcervical injections of […] recombinant mouse IFN-γ (rmIFN-γ, R&D Systems) in 200 μl PBS containing 1% bovine serum albumin (PBS-BSA) at 1700 h on day 0, at 1000 h on day 1 and 1700 h on day 1. The second group (25 ng IFN-γ) receive three injections of 25 ng rmIFN-γ according to the same time schedule. The third group (control) receive three injections of PBS-BSA instead of IFN-γ according to the same time schedule. For comparison, a fourth group of mice are mated but otherwise would remain untreated. Twenty mice per group are used to ensure statistical significance in treatment effects.
Pregnant females are sacrificed by cervical dislocation at 1000 h -1200 h on day 18 of gestation. The intact uterus of each female is removed and total, viable and resorbing implantation sites counted. Each viable fetus is dissected from the amniotic sac and umbilical cord, and fetuses and placentae weighed. Placental tissues are fixed in paraformaldehyde and processed for histological staining of paraffin sections, using Masson's trichrome stain.

For `CC1(C)S[C@@H]2[C@H](NC(=O)Cc3ccccc3)C(=O)N2[C@H]1C(=O)O` [penicillin, benzyl penicillin, reference compound], the “ability of penicillin to inhibit the effect of IFNγ on GM-CSF production” value on IFNγ [1] is listed as “inhibit the effect of IFNγ”. Besides, in the data set on IFNγ [2] (penicillin at 60 μg/ml), the “IFNγ concentration required to inhibit GM-CSF synthesis after addition of penicillin” value is at least 2.5 ng/mL and the “effect of penicillin on the GM-CSF inhibiting activity of IFNγ” value is listed as “antagonised the GM-CSF inhibiting activity of IFNγ”. On to “IFN-γ: recombinant human IFN-γ (R & D Systems), used on human cervical epithelial cells in Example 4”, for which, in data set [3], the “effect of IFN-γ on GM-CSF synthesis” value was “inhibited GM-CSF synthesis”.

B1: rhTGFβ3: recombinant human TGFβ3 (OSI Pharmaceuticals) (protein, UniProt P10600 301-412, looked up)
Transforming growth factor …: ALDTNYCFRNLEENCCVRPLYIDFRQDLGWKWVHEPKGYYANFCSGPCPYLRSADTTHSTVLGLYNTLNPEASASPCCVPQDLEPLTILYYVGRTPKVEQLSNMVVKSCKCS
modifications: Transforming growth factor beta-3
As for B1, the “effect on the detrimental effects of IFN-γ on pregnancy outcome” value in the data set with mice is recorded as “reverses the detrimental effects of IFN-γ”. In addition, in the data set on IFNγ [2], the “effect of TGFβ isoform on the inhibitory effect of IFNγ on GM-CSF synthesis” value is listed as “counteracted the inhibitory effect”.

B2: rhTGFβ2: recombinant human TGFβ2 (R&D Systems) (protein, UniProt P61812 303-414, looked up)
Transforming growth factor …: ALDAAYCFRNVQDNCCLRPLYIDFKRDLGWKWIHEPKGYNANFCAGACPYLWSSDTQHSRVLSLYNTINPEASASPCCVSQDLEPLTILYYIGKTPKIEQLSNMIVKSCKCS
modifications: Transforming growth factor beta-2
For the molecule B2, the “effect on the detrimental effects of IFN-γ on pregnancy outcome” value in the data set on mice is recorded as “reverses the detrimental effects of IFN-γ”. Besides, the “effect of TGFβ isoform on the inhibitory effect of IFNγ on GM-CSF synthesis” value in the data set on IFNγ [2] is “counteracted the inhibitory effect”.

B3: IFN-γ: recombinant human IFN-γ (R & D Systems), used on human cervical epithelial cells in Example 4 (protein, UniProt P01579 24-161, looked up)
Interferon gamma: QDPYVKEAENLKKYFNAGHSDVADNGTLFLGILKNWKEESDRKIMQSQIVSFYFKLFKNFKDDQSIQKSVETIKEDMNVKFFNSNKKKRDDFEKLTNYSVTDLNVQRKAIHELIQVMAELSPAAKTGKRKRSQMLFRG
As to B3, the “effect of IFN-γ on pregnancy outcome” value in the data set on mice (peritoneal cavity or uterine lumen, day of estrus and day 1, assessed day 18) is recorded as “impairs pregnancy outcome”.
